Measured values taken from publication PMC3161067, “Combined SAXS/EM Based Models of the S. elongatus Post-Translational Circadian Oscillator and its Interactions with the Output His-Kinase SasA” (PLoS ONE, 2011).
Where a chain is given by its changes, count along the chain named. Names may count otherwise.

T1: KaiBC complex (KaiB with wild type KaiC) (S. elongatus, UniProt Q79PF5 1-102; Q79PF4 1-519)
T1 construct: KaiB, Synechococcus elongatus, as m2; wild type KaiC, Synechococcus elongatus, as m3; KaiC phosphorylation state varies in the cycling reaction; also called KaiB-KaiC; source: formed in the in vitro cycling reaction from purified proteins; copies: + 6
T1 sequence (looked up) 1: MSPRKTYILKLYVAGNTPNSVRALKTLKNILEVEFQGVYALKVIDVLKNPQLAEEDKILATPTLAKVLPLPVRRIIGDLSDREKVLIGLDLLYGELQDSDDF
T1 sequence (looked up) 2: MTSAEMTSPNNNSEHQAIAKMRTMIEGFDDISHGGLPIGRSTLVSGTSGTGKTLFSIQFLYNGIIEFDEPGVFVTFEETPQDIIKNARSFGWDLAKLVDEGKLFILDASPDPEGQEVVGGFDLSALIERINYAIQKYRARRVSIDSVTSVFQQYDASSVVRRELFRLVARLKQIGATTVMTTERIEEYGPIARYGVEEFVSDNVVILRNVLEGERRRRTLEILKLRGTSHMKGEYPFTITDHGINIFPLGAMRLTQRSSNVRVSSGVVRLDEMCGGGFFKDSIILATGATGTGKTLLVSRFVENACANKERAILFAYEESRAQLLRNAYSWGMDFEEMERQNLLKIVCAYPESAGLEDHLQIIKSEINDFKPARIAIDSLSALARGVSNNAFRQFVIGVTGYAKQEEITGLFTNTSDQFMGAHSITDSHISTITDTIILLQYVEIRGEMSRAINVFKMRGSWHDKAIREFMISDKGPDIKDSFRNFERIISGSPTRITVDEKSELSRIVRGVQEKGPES

B1: KaiB (S. elongatus) (natural protein, UniProt Q79PF5 1-102, looked up)
chain: T1 sequence (looked up) 1
notes: KaiB, Synechococcus elongatus; Tetramer free in solution; The crystal model used for SAXS (PDB 2QKE) is KaiB of another species (T. elongatus); also called KaiB tetramer; wt KaiB; source: E. coli BL21, GST fusion, purified
B2: KaiA (S. elongatus) (natural protein, UniProt Q79PF6 1-284, looked up)
chain: MLSQIAICIWVESTAILQDCQRALSADRYQLQVCESGEMLLEYAQTHRDQIDCLILVAANPSFRAVVQQLCFEGVVVPAIVVGDRDSEDPDEPAKEQLYHSAELHLGIHQLEQLPYQVDAALAEFLRLAPVETMADHIMLMGANHDPELSSQQRDLAQRLQERLGYLGVYYKRDPDRFLRNLPAYESQKLHQAMQTSYREIVLSYFSPNSNLNQSIDNFVNMAFFADVPVTKVVEIHMELMDEFAKKLRVEGRSEDILLDYRLTLIDVIAHLCEMYRRSIPRET
notes: KaiA, Synechococcus elongatus; also called KaiA dimer; wt KaiA; source: E. coli BL21, GST fusion, purified
B3: SasA (S. elongatus His kinase) (natural protein, UniProt Q06904 1-387, looked up)
chain: MGESLSPQALAQPLLLQLFVDTRPLSQHIVQRVKNILAAVEATVPISLQVINVADQPQLVEYYRLVVTPALVKIGPGSRQVLSGIDLTDQLANQLPQWLVQQEAFFADREPPEVNIPFTELGQPETPALQQADAFFQLQQQYADLSERTKFLEQVIALVAHDLRNPLTAALLAVDTIQIRSQSFSVATAKEMQGLCSLFDQARSQLREIERMIAEILEATRHSGESLRINPREVVFEPLLQQVLEQLHERWRSKQQQLITDVPGDLPTLYADPDRLRQVLVNLLDNAIKYTPPGGTITIAALHRTSQKVQISISDTGSGIPRDQLSVIFKNLVRLSRDSSQEGYGIGLSVCQRIVQAHFGRIWVASELGQGSTFHFTMPVYRYTMPC
notes: SasA, adaptive-response sensory His kinase, Synechococcus elongatus; N-terminal sensory domain is residues 1-97; its expression and purification are not described; also called full-length SasA; wt SasA
B4: wild type KaiC (S. elongatus) (natural protein, UniProt Q79PF4 1-519, looked up)
chain: T1 sequence (looked up) 2
notes: KaiC, Synechococcus elongatus; C-terminal residue S519; Its phosphorylation state varies in the cycling reaction; also called wt-KaiC; TST; source: E. coli BL21, purified
B5: KaiC T432E/S431E double mutant (natural protein, S. elongatus, UniProt Q79PF4 1-519, looked up)
chain: T1 sequence (looked up) 2 with S431E, T432E
modifications: phosphoserine at 320 (in the A and F subunits of the crystal structure)
notes: KaiC, Synechococcus elongatus, with S431E and T432E; the tag is therefore uncertain; also called KaiC-ee; S431E/T432E
B6: KaiC T432A/S431A double mutant (natural protein, S. elongatus, UniProt Q79PF4 1-519, looked up)
chain: T1 sequence (looked up) 2 with S431A, T432A
notes: KaiC, Synechococcus elongatus, with S431A and T432A; the tag is therefore uncertain; also called KaiC-aa; S431A/T432A

Key:
[1] = target: B5; assay: SAXS; binary complexes in solution, conditions set by native PAGE, 0.5-2.0 mg/mL, 10 or 20°C; ab initio envelopes without symmetry; conditions: both partners purified
[2] = target: the molecule itself; assay: SAXS; individual proteins in solution, 0.5-2.0 mg/mL, 10 or 20°C; ab initio envelopes (DAMMIN, GASBOR) compared with crystal structures
[3] = target: B4; assay: negative-stain EM; Kai complexes of the in vitro cycling reaction with 1x or 4x KaiA; reconstruction of class IV particles at ~30 Å; conditions: both partners purified
[4] = target: B6; assay: SAXS; binary complexes in solution, conditions set by native PAGE, 0.5-2.0 mg/mL, 10 or 20°C; ab initio envelopes without symmetry; conditions: both partners purified
[5] = target: T1, KaiBC complex (KaiB with wild type KaiC); assay: negative-stain EM; Kai complexes of the in vitro cycling reaction with 1x or 4x KaiA; reconstruction of class IV particles at ~30 Å; conditions: both partners purified
[6] = target: B6; assay: negative-stain EM; SasA:KaiC-aa complex, uranyl formate 0.75%, class averages and 3D reconstruction (C1) at 23.5 Å; conditions: both partners purified
[7] = target: the molecule itself; assay: negative-stain EM; Kai complexes of the in vitro cycling reaction with 1x or 4x KaiA; reconstruction of class IV particles at ~30 Å
[8] = target: the molecule itself; assay: crystal structure; KaiC-ee with ATPγS, 3.0 Å, molecular replacement with PDB 3DVL
[9] = target: the molecule itself; assay: negative-stain EM; SasA:KaiC-aa complex, uranyl formate 0.75%, class averages and 3D reconstruction (C1) at 23.5 Å

Binder: B1
stoichiometry N [1]: 2 KaiB dimers per KaiC hexamer
stoichiometry N [2]: 4
binding result [3]: binds

Binder: B2
stoichiometry N [4]: 1 KaiA dimer per KaiC hexamer
stoichiometry N [2]: 2
binding result [5]: binds

Binder: B3
stoichiometry N [6]: 2 binding sites per KaiC hexamer
stoichiometry N [1]: 2 SasA dimers per KaiC hexamer

Binder: B4
stoichiometry N [7]: 6

Binder: B5
stoichiometry N [8]: 6

Binder: B6
stoichiometry N [9]: 6
